The target of assay [1] is T1, MMP-16 (Homo sapiens, UniProt P51512). Kind of assay: Cross-reactivity of Fabs with MMP-16 (Example 9). The format is biochemical. Details: key: X: Do not inhibit MMP-16 or MMP-24 at [I] = 100 nM level; Y: partially inhibit at [I] = 100 nM level. The note with it: Fab, 100 nM final inhibitor concentration, 5 nM MMP-16. On the procedure: (§1) For the studies summarized in Table 15, 1 μM of anti-MMP-14 Fab/IgG (100 nM final inhibitor concentration) were incubated with 5 nM of MMP-16 or 5 nM of MMP-24 for 30 minutes at 30° C., 10 μM of substrate was added, and the MMP-16 activity was measured.
T1 sequence (P51512 120-607): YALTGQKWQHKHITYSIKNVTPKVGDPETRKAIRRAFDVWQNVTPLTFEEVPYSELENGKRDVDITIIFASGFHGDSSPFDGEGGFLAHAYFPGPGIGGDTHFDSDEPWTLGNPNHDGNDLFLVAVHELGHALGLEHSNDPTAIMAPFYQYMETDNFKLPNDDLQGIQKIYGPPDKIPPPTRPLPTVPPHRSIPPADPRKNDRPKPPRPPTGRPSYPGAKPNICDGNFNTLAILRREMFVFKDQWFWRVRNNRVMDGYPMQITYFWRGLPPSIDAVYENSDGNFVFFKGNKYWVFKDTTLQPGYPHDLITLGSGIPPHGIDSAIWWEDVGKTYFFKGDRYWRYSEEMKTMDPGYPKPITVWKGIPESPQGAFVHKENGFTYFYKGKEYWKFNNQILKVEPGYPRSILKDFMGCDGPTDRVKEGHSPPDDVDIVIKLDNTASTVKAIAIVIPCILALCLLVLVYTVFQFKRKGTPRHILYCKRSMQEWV

In assay [2] the target is T2, MMP-24 (Homo sapiens, UniProt Q9Y5R2). Nature of the assay: Cross-reactivity of Fabs with MMP-24 (Example 9). The format is biochemical. Details: key to MMP-24 (cross-reactivity, class symbol): X: Do not inhibit MMP-16 or MMP-24 at [I] = 100 nM level; Y: partially inhibit at [I] = 100 nM level. The note with it: Fab, 100 nM final inhibitor concentration; 5 nM MMP-24. On the procedure:
as §1

In assay [3] the target is T3, MMP-14 (Homo sapiens, UniProt P50281). Nature of the assay: Selection and phage ELISA screening of anti-MMP-14 Fabs. The format is binding. Particulars: Fab from FAB310 phage display library. The procedure, abridged:
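The FAB310 phage library was panned on biotinylated MMP-14, alone or complexed with bead-bound TIMP-2, at 500 nM and then 100 nM over three rounds. Phage was eluted with 2.5 μM TIMP-2, then 100 mM TEA. For ELISA, 95 clones per round were screened against 1 μg/ml biotinylated MMP-14 captured on streptavidin in TRIS/5 mM CaCl2, pH 7.5.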
For orientation: ELISA stands for enzyme-linked immunosorbent assay.

Assay [4] concerns Tumor Cells Expressing MMP-14 (HT-1080, LNCaP, MDA-MB-231, PC3). Kind of assay: Binding of IgGs to tumor cells, immunocytochemistry and flow cytometry. The format is cell-based, human. The note with it: ICC versus flow cytometry. On the procedure: The ability of twelve biotinylated-MMP-14 binding IgGs to bind to tumor cells expressing MMP-14 was evaluated using both immunocytochemistry (ICC) and flow cytometry. The cell lines tested were HT-1080 (a human fibrosarcoma cell line), LNCaP (human, prostate, carcinoma), MDA-MB-231 (human, breast, adenocarcinoma), or PC3 (Human prostatic cancer cells) cells. MMP-14 is expressed on HT-1080 cells (Cancer Res. (2005) 65(23):10959-69.). MMP-14 is expressed on PC-3 cells (Oncol Rep. (2006) 15(1):199-206). LNCaP express MMP-14 (Endocrinology (2003) 144(5):1656-1663) at a relatively low level. […] MMP-14 is expressed by MDA-MB-231 cells (Int J Cancer. (2005) 114(4):544-554.).
Cells (2×10^5) were cultivated on cell culture slides in complete medium. At confluency, cells were washed with PBS and fixed with 4% paraformaldehyde for 30 minutes at room temperature. Endogenous peroxidases were blocked with 3% hydrogen peroxide for 20 minutes. Nonspecific binding sites were blocked by incubation with 10% heat inactivated human serum 10% normal rabbit serum for 30 minutes at room temperature. Cells were then incubated with biotinylated or non-biotinylated MMP-14 binding proteins at 10 μg/ml for 2 hours at room temperature. […] Binding was detected with the substrate AEC+(25 minutes at room temperature in the dark). […]
Background: A flow cytometer gives signals particle by particle.

Assay [5] addresses T1, MMP-16. Kind of assay: Cross-reactivity of Fabs and IgGs with MMP-16 (Example 8). The format is biochemical. Particulars: 5 nM MMP16, 30 minutes at 30° C., 10 μM substrate. Further details: key to MMP-16 (cross-reactivity, class symbol): X: Does not inhibit MMP-16 at [I] = 100 nM level. On the procedure: For the studies summarized in Tables 13 and 14, 100 nM anti-MMP-14 Fab/IgG were incubated with 5 nM MMP16 for 30 minutes at 30° C., 10 μM of substrate was added, and the MMP-16 activity was measured.

Assay [6] deals with T3, MMP-14. Nature of the assay: IC50 for MMP-14 inhibition by Fabs and IgGs. The note with it: Fab. The format is biochemical. The method, then: MMP-14 binding proteins can be characterized in assays that measure their modulatory activity toward MMP-14 or fragments thereof in vitro or in vivo. For example, MMP-14 can be combined with a substrate such as Mca-Pro-Leu-Ala-Cys(Mob)-Trp-Ala-Arg-Dap(Dnp)-NH2 under assay conditions permitting cleavage by MMP-14. The assay is performed in the absence of the MMP-14 binding protein, and in the presence of increasing concentrations of the MMP-14 binding protein. The concentration of binding protein at which 50% of the MMP-14 activity (e.g., binding to the substrate) is inhibited is the IC50 value (Inhibitory Concentration 50%) or EC50 (Effective Concentration 50%) value for that binding protein.

Assay [7] addresses T1, MMP-16. Nature of the assay: Cross-reactivity of anti-MMP-14 IgGs, enzymatic activity: MMP-16. The format is biochemical. The note with it: 1 μM anti-MMP-14 IgG. On the procedure:
(§2) The cross-reactivity of exemplary anti-MMP-14 IgGs and Fabs with other human MMPs and TACE (TNF-alpha converting enzyme) was examined. MMP and TACE enzymatic activity was monitored in the absence and presence of 1 μM anti-MMP-14 IgG antibody. Inhibition (Y) of activity ranged from approximately 50-80% of the reaction rate observed in the absence of antibody. “X” indicates no inhibition was observed. Cross-reactivity was not determined for MMP-17 because protein activity could not be detected.
(§3) For the studies summarized in Table 12, six anti-MMP-14 IgGs were selected for cross-reactivity testings: M0043-G02, M0040-A06, M0037-D01, M037-C09, M0038-F01, M0033-H07.

The test system of assay [8] is activation of pro-MMP-2 by MMP-14 in PMA-activated HT-1080 cells. Nature of the assay: Gelatin zymogram, pro-MMP-2 activation in HT-1080 cells. The format is cell-based, human. Particulars: gelatin zymography of conditioned media after 3 days; antibodies 10 μg/ml, GM6001 10 μM. The method, then:
The ability of anti-MMP-14 IgGs to inhibit the activation of pro-MMP-2 by MMP-14 was examined by gelatin zymogram experiments performed with PMA-activated HT-1080 cells. M0033-H07 and M0038-F01 were tested for their ability to inhibit MMP-14 in this assay. HT1080 cells (well-known to express MMP-14 and MMP-2) were seeded at 5×10^5 cells/well at Day 0. […] HT-1080 cells cultured in the presence of 20 ng/ml of PMA were used as a positive control.
After 3 days of incubation, conditioned media were collected and gelatinolytic activities were analyzed by gelatin zymography as described previously (Maquoi et al, J Biol Chem 2000; 275:11368-78). When HT-1080 cells are activated with a phorbol ester, pro-MMP-2 is activated into MMP-2 (lane 1).

In assay [9] the target is T2, MMP-24. Nature of the assay: Cross-reactivity of anti-MMP-14 IgGs, enzymatic activity: MMP-24. The format is biochemical. The note with it: 1 μM anti-MMP-14 IgG. The method, then:
as §2, §3

These results are taken from patent US8106168B2, “Metalloproteinase binding proteins” (Dyax Corp., priority 2005, dated 2012).

T2 sequence (Q9Y5R2 156-645): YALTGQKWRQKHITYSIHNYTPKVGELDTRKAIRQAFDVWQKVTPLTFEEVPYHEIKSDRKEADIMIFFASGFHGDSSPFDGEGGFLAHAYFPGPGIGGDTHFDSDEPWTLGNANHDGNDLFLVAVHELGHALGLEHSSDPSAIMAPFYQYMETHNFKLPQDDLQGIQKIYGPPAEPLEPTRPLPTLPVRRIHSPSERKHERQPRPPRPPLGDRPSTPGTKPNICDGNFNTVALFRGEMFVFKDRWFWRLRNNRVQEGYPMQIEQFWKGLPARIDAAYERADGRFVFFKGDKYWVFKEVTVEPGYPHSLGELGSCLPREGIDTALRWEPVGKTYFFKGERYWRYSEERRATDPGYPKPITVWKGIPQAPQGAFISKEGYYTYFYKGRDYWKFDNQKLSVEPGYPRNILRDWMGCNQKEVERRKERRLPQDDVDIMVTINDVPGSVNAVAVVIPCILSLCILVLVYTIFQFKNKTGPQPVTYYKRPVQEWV

B1: M0038-F08: human antibody (Fab, IgG) that binds and inhibits MMP-14; HC SEQ ID NO: 158, LC SEQ ID NO: 159 (antibody, V domains shown)
VH: EVQLLESGGGLVQPGGSLRLSCAASGFTFSRYKMWWVRQAPGKGLEWVSGIRPSGGLTRYADSVKGRFTISRDNSKNTLYLQMNSLRAEDTAVYYCARRGDYVGGFDYWGQGTLVTVSS
VL: QDIQMTQSPGTLSLSPGERATLSCRASQSVSSSYLAWYQQKPGQAPRLLIYGASSRATGIPDRFSGSGSGTDFTLTISRLEPEDFAVYYCQHYGGSQAFGGGTKVEIK
modifications: Synthetically generated peptide
In the case of B1, the “MMP-16 (cross-reactivity, class symbol)” value with MMP-16 [1], with MMP-16 [5] (Fab 100 nM) and with MMP-16 [5] (IgG 100 nM) was “X” each time. The “MMP-24 (cross-reactivity, class symbol)” value with MMP-24 [2] was “X”. Moreover, the “bind to human MMP-14” value with MMP-14 [3] was “bind to human MMP-14”. The “Staining, remark on method” value in assay [4] is given as “(only positive in immunocytochemistry, ICC)”. Also, the “bind to and inhibit human MMP-14” value in the assay with MMP-14 [6] was “bind to and inhibit human MMP-14”.

B2: M0033-H07: human antibody (Fab, IgG) that binds and inhibits MMP-14; HC SEQ ID NO: 148, LC SEQ ID NO: 149 (antibody, V domains shown)
VH: EVQLLESGGGLVQPGGSLRLSCAASGFTFSVYGMVWVRQAPGKGLEWVSVISSSGGSTWYADSVKGRFTISRDNSKNTLYLQMNSLRAEDTALYYCARPFSRRYGVFDYWGQGTLVTVSS
VL: QDIQMTQSPSSLSASVGDRVTITCRASQGIRNFLAWYQQKPGKVPKLLVFGASALQSGVPSRFSGSGSGTDFTLTISGLQPEDVATYYCQKYNGVPLTFGGGTKVEIK
modifications: Synthetically generated peptide
Turning to B2, in the assay with MMP-16 [7], the “Cross reactivity: inhibition of MMP-16 activity” value was “Y (Inhibition (Y) of activity ranged from approximately 50-80% of the reaction rate observed in the absence of antibody)”. Moreover, the “MMP-16 (cross-reactivity, class symbol)” value with MMP-16 [1], with MMP-16 [5] (Fab 100 nM) and in the assay with MMP-16 [5] (IgG 100 nM) was “X” in each case. For the same molecule, the “MMP-24 (cross-reactivity, class symbol)” value with MMP-24 [2] is given as “X”. Besides, the “pro-MMP-2 activation by MMP-14” value in [8] is recorded as “partly inhibited”. In [8], the pro-MMP-9 expression entry is “No stimulation”. Further, the “bind to human MMP-14” value with MMP-14 [3] is listed as “bind to human MMP-14”. Besides, in the assay with MMP-24 [9], the “Cross reactivity: inhibition of MMP-24 activity” value is reported as “Y (Inhibition (Y) of activity ranged from approximately 50-80% of the reaction rate observed in the absence of antibody)”. Further, the “bind to and inhibit human MMP-14” value with MMP-14 [6] was “bind to and inhibit human MMP-14”.

B3: M0031-F01: human antibody (Fab, IgG) that binds and inhibits MMP-14; HC SEQ ID NO: 146, LC SEQ ID NO: 147 (antibody, V domains shown)
VH: EVQLLESGGGLVQPGGSLRLSCAASGFTFSTYEMHWVRQAPGKGLEWVSSIYSSGGWTGYADSVKGRFTISRDNSKNTLYLQMNSLRAEDTAVYYCARSQQYYDFSSRYYGMDVWGQGTTVTVSS
VL: QSELTQPPSVSGTPGQRVTISCSGTSANIGRNAVHWYQQLPGTAPKLLIHSNNRRPSGVPDRFSGSKSGTSASLAISGLQSEDEADYYCAAWENSLNAFYVFGTGTKVTVL
modifications: Synthetically generated peptide
In the case of B3, the “bind to human MMP-14” value with MMP-14 [3] is “bind to human MMP-14”. In addition, the “Staining, remark on method” value in assay [4] is on record as “(only positive in ICC)”. In the assay with MMP-14 [6], the “bind to and inhibit human MMP-14” value is “bind to and inhibit human MMP-14”.
